Assay results reported in US8095350.

Target: T1, Human APOBEC-2 (APO2) containing residues 41-224 (human), Q9Y235
T1 chain: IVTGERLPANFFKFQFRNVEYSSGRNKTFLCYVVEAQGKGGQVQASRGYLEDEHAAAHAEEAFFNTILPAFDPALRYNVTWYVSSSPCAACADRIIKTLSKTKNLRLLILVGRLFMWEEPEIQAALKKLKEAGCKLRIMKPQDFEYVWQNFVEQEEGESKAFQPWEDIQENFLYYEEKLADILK
Test: X-ray crystal structure, tetramer interface
Conditions: remark: other sources report otherwise

total buried area within the tetramer interface: 1740 Å^2
B1: Human APOBEC-2 (APO2) containing residues 41-224, Q9Y235 41-224 (enzyme, UniProt Q9Y235 41-224, looked up)
chain: T1 chain
